For this assay, the system named is Anti-VEGF antibody. Nature of the assay: Target antibody driven NANOLUC bioluminescence complementation (NLpep114-VEGFA targets, NLpoly11S-protein G, anti-VEGF antibody). Type of assay: cell-based. To be noted: HEK293T cells. The text has this:
FIG. 6 depicts a schematic of how the assay components are used to screen for antibody binding to target protein by way of antibody driven NANOLUC bioluminescence complementation between NLpoly11S-fused protein G and internally tagged NLpep114 target protein. The Target, containing an internal pep114 tag, is expressed in mammalian cell culture with an IL6 signal peptide (SP). The SP directs the Target to the secretion pathway. The Target can be assayed in the media (+/−) cells. In the example, a purified preparation of the Large Bit (11S-protein G fusion protein) and Test Antibody are added directly to the mammalian cell culture. The protein G domain of the Large Bit binds to the Fc region of the Test Antibody between the Heavy Chain Constant Domains 2 and 3. If the Test Antibody binds to the Target, the Large and Small Bits can come together to form an active luminesent complex that is detected by furimazine.
NLpep114-target fusion construct DNA was diluted into carrier DNA (pGEM3Zf(−); Promega) at bug total DNA at a mass ratio of 1:10. DNA:FuGENE complexes were formed at a ratio of 1:3 (ug DNA/ul FuGENE), according to manufacturer's protocol (Promega). One part of the transfection complex was mixed with 20 parts (volume/volume) of HEK293T cells (ATCC) suspended at a density of 2×10^5 cells/ml in DMEM (Gibco)+10% FBS (Hyclone). Cells (50 ul/well) were dispensed into 96-well tissue culture plates and incubated in a humidified, 37° C./5% CO2 incubator for 18-24 hours.
HEK293T cells (ATCC) were transfected with three NLpep114-VEGFA DNAs as described above and incubated overnight. The cells were serum starved for 4 hours under the same conditions by replacing the media with an equal volume of (Gibco). NLpoly11S(15)pG in 1×PBS/0.1% BSA (Promega) was added (25 ul/well) to a final concentration of 0.5 ug/ml (12 nM). Anti-VEGF antibody (R&D Systems, #293) in 1×PBS/0.1% BSA (Promega) was added (25 ul/well) to a final concentration of 0-0.73 ug/ml (0-5.3 nM). After the addition of LCS Reagent (Promega, 100 ul/well, 10 μM final concentration), luciferase activity was measured using an Infinity F500 microtiter plate reader (Tecan).

B1: ATG-1917: Experimental Target with the Small Bit (NLpep114) between two large domains (SEQ ID NO: 2578) (protein)
chain: MNSFSTSAFGPVAFSLGLLLVLPAAFPAPRAEIGTGFPFDPHYVEVLGERMHYVDVGPRDGTPVLFLHGNPTSSYVWRNIIPHVAPTHRCIAPDLIGMGKSDKPDLGYFFDDHVRFMDAFIEALGLEEVVLVIHDWGSALGFHWAKRNPERVKGIAFMEFIRPIPTWDEWPEFARETFQAFRTTDVGRKLIIDQNVFIEGTLPMGVVRPLTEVEMDHYREPFLNPVDREPLWRFPNELPIAGEPANIVALVEEYMDWLHQSPVPKLLFWGTPGVLIPPAEAARLAKSLPNCKAVDIGPGLNLLQEDNPDLIGSEIARWLSTLEISGEPTTEDLYFQSDNVTGYRLFEEILGSSGAPMAEGGGQNHHEVVKFMDVYQRSYCHPIETLVDIFQEYPDEIEYIFKPSCVPLMRCGGCCNDEGLECVPTEESNITMQIMRIKPHQGQHIGEMSFLQHNKCECRPKKDRARQENPCGPCSERRKHLFVQDPQTCKCSCKNTDSRCKARQLELNERTCRCDKPRR
Take B1: the “signal reduction relative to ATG-1915 (C-terminal NLpep114 tag)” value (anti-VEGF antibody) is 5 fold.

B2: ATG-1946: Experimental Target with the Small Bit between one large and one small domain (C-terminal FLAG) (SEQ ID NO: 2579) (protein)
chain: MNSFSTSAFGPVAFSLGLLLVLPAAFPAPRAEIGTGFPFDPHYVEVLGERMHYVDVGPRDGTPVLFLHGNPTSSYVWRNIIPHVAPTHRCIAPDLIGMGKSDKPDLGYFFDDHVRFMDAFIEALGLEEVVLVIHDWGSALGFHWAKRNPERVKGIAFMEFIRPIPTWDEWPEFARETFQAFRTTDVGRKLIIDQNVFIEGTLPMGVVRPLTEVEMDHYREPFLNPVDREPLWRFPNELPIAGEPANIVALVEEYMDWLHQSPVPKLLFWGTPGVLIPPAEAARLAKSLPNCKAVDIGPGLNLLQEDNPDLIGSEIARWLSTLEISGEPTTEDLYFQSDNAPMAEGGGQNHHEVVKFMDVYQRSYCHPIETLVDIFQEYPDEIEYIFKPSCVPLMRCGGCCNDEGLECVPTEESNITMQIMRIKPHQGQHIGEMSFLQHNKCECRPKKDRARQENPCGPCSERRKHLFVQDPQTCKCSCKNTDSRCKARQLELNERTCRCDKPRRGSSGVTGYRLFEEILGSDYKDDDDK
In the case of B2, the “signal loss relative to ATG-1915 (C-terminal NLpep114 tag)” value (anti-VEGF antibody) amounted to 40%.

B3: ATG-1915: Control Target with a terminal Small Bit: HALOTAG-VEGFA-165 with C-terminal NLpep114 tag (SEQ ID NO: 2577) (protein)
chain: MNSFSTSAFGPVAFSLGLLLVLPAAFPAPRAEIGTGFPFDPHYVEVLGERMHYVDVGPRDGTPVLFLHGNPTSSYVWRNIIPHVAPTHRCIAPDLIGMGKSDKPDLGYFFDDHVRFMDAFIEALGLEEVVLVIHDWGSALGFHWAKRNPERVKGIAFMEFIRPIPTWDEWPEFARETFQAFRTTDVGRKLIIDQNVFIEGTLPMGVVRPLTEVEMDHYREPFLNPVDREPLWRFPNELPIAGEPANIVALVEEYMDWLHQSPVPKLLFWGTPGVLIPPAEAARLAKSLPNCKAVDIGPGLNLLQEDNPDLIGSEIARWLSTLEISGEPTTEDLYFQSDNAPMAEGGGQNHHEVVKFMDVYQRSYCHPIETLVDIFQEYPDEIEYIFKPSCVPLMRCGGCCNDEGLECVPTEESNITMQIMRIKPHQGQHIGEMSFLQHNKCECRPKKDRARQENPCGPCSERRKHLFVQDPQTCKCSCKNTDSRCKARQLELNERTCRCDKPRRGSSGVTGYRLFEEIL
Regarding B3, the “overall luminescence signal, compared among constructs” value (anti-VEGF antibody) is “highest signal”. In addition, where the note is “anti-VEGF antibody 0-0.73 ug/ml (0-5.3 nM), NLpoly11S-protein G 0.5 ug/ml (12 nM)”, the “signal over background (increase in bioluminescence with antibody over assay components without antibody)” value was “over 400 fold”.

These data come from US11365402B2, “Internal protein tags” (Promega Corporation, priority 2014, dated 2022).
